Measured values as given in the supplement of paper PMC7877785.
± gives the uncertainty stated by the source.

Assay: self-splicing fitness, log relative to wild type (ln ratio); higher = more splicing; Tetrahymena group I intron in knt gene, E. coli kanamycin selection, DiMSum; sequences stand for … in CUCUCU…GGAGGGAAAAGUUAUCAGGCAUGCACCUGGUAGCUAGUCUUUAAACCAAUAGAUUGCAUCGGUUUAAAAGGCAAGACCGUCAAAUUGCGGGAAAGGGGUCAACAGCCGUUCAGUACCAAGUCUCAGGGGAAACUUUGAGAUGGCCUUGCAAAGGGUAUGGUAAUAAGCUGACGGACAUGGUCCUAACCACGCAGCCAAGUCCUAAGUCAACAGAUCUUCUGUUGAUAUGGAUGCAGUUCACAGACUAAAUGUCGGUCGGGGAAGAUGUAUUCUUCUCAUAAGAUAUAGUCGGACCUCUCCUUAAUGGGAGCUAGCGGAUGAAGUGAUGCAACACUGGAGCCGCUGGGAACUAAUUUGUAUGCGAAAGUAUAUUGAUUAGUUUUGGAGUACUCGUGGUCG
Procedure, shortened: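 Six replicate transformations of E. coli BL21(DE3) with a pET-22b(+) library were grown overnight at 37°C or 30°C. The library randomised all eight P1ex-region intron nucleotides, the intron lying in the knt kanamycin-resistance gene, and plates were LB agar with or without 25 μg/mL kanamycin plus 100 μg/mL carbenicillin, 50 μM IPTG and 0.2% rhamnose. Pooled colonies were amplicon-sequenced on an Illumina HiSeq 2500, and fitness is the DiMSum error-weighted combination of wild-type-normalised replicate fold changes, kanamycin versus none.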

Sequence | self-splicing fitness (ln) (30 °C) | self-splicing fitness (ln) (37 °C)
GUGAAGCAAUAUUACGGUUA | -0.24 ± 0.054 | 0.132 ± 0.086
GUGAAGCAAUAUUACGUAGA | -2.33 ± 0.17 | -0.683 ± 0.17
GUGAAGCAAUAUUACGUCCA | -0.721 ± 0.16 | 0.775 ± 0.22
GUGAAGCAAUAUUACGUCUU | -1.6 ± 0.067 | -0.642 ± 0.078
GUGAAGCAAUAUUACGUGGG | -3.96 ± 0.2 | -2.13 ± 0.15
GUGCAGCAAUAUUACGAAGA | -2.35 ± 0.46 | -0.855 ± 0.15
GUGCAGCAAUAUUACGAAGC | -1.05 ± 0.14 | -1.36 ± 0.19
GUGCAGCAAUAUUACGACCA | -0.711 ± 0.1 | -0.667 ± 0.13
GUGCAGCAAUAUUACGACUA | -0.908 ± 0.24 | -0.48 ± 0.26
GUGCAGCAAUAUUACGACUU | -0.219 ± 0.087 | 0.408 ± 0.093
GUGCAGCAAUAUUACGAGAG | -2.23 ± 0.15 | -2.42 ± 0.2
GUGCAGCAAUAUUACGAGUC | -2.57 ± 0.1 | -0.808 ± 0.099
GUGCAGCAAUAUUACGAGUG | -2.2 ± 0.15 | -2.11 ± 0.17
GUGCAGCAAUAUUACGAUCA | -1.14 ± 0.1 | -0.487 ± 0.12
GUGCAGCAAUAUUACGAUGC | -0.245 ± 0.11 | 0.208 ± 0.17
GUGCAGCAAUAUUACGCAAG | -1.5 ± 0.1 | -0.974 ± 0.12
GUGCAGCAAUAUUACGCAAU | -1.75 ± 0.085 | -1.37 ± 0.12
GUGCAGCAAUAUUACGCACC |  | -1.79 ± 0.35
GUGCAGCAAUAUUACGCACG | -2.88 ± 0.38 | -2.85 ± 0.45
GUGCAGCAAUAUUACGCCGU | -2.77 ± 0.23 | -0.412 ± 0.18
GUGCAGCAAUAUUACGCGAC | -3.59 ± 0.34 | -1.8 ± 0.2
GUGCAGCAAUAUUACGCGAU | -3.78 ± 0.31 | -1.45 ± 0.31
GUGCAGCAAUAUUACGCGGU | -2.93 ± 0.19 | -2.94 ± 0.32
GUGCAGCAAUAUUACGGAAC | -2.17 ± 0.23 | -1.12 ± 0.33
GUGCAGCAAUAUUACGGAAU | -2.01 ± 0.073 | -0.012 ± 0.087

Sequence | self-splicing fitness (ln) (30 °C) | self-splicing fitness (ln) (37 °C)
GUGCAGCAAUAUUACGGCAG | -2.71 ± 0.33 | -1.04 ± 0.25
GUGCAGCAAUAUUACGGGCG | -1.82 ± 0.092 | -0.512 ± 0.11
GUGCAGCAAUAUUACGUAAA | -0.491 ± 0.084 | -1.05 ± 0.11
GUGCAGCAAUAUUACGUAAC | -1.63 ± 0.15 | -0.239 ± 0.14
GUGCAGCAAUAUUACGUCCG | -3 ± 0.22 | -0.37 ± 0.18
GUGCAGCAAUAUUACGUCGG | -2.84 ± 0.16 | -1.47 ± 0.17
GUGCAGCAAUAUUACGUGUG | -2.95 ± 0.11 | -1.33 ± 0.1
GUGCAGCAAUAUUACGUGUU | -1.99 ± 0.081 | -1.22 ± 0.084
GUGCAGCAAUAUUACGUUUU | -2.08 ± 0.096 | -1.69 ± 0.096
GUGGAGCAAUAUUACGAAGA |  | -2.05 ± 0.49
GUGGAGCAAUAUUACGAGCG | -3.52 ± 0.38 | -1.62 ± 0.31
GUGGAGCAAUAUUACGAGGG | -4.4 ± 0.33 | 
GUGGAGCAAUAUUACGAUGG |  | -2.9 ± 0.38
GUGGAGCAAUAUUACGCAUA |  | -1.1 ± 0.4
GUGGAGCAAUAUUACGCCUC | -3.07 ± 0.3 | -1 ± 0.25
GUGGAGCAAUAUUACGCCUG | -2.7 ± 0.23 | 
GUGGAGCAAUAUUACGGCUG | -2.49 ± 0.21 | -2.1 ± 0.32
GUGGAGCAAUAUUACGGGAA | -2.15 ± 0.28 | -3.23 ± 0.35
GUGGAGCAAUAUUACGGGGU | -3.24 ± 0.44 | -2.26 ± 0.42
GUGGAGCAAUAUUACGGUCC | -2.12 ± 0.19 | -1.91 ± 0.24
GUGGAGCAAUAUUACGUAAA | -1.5 ± 0.21 | -2.18 ± 0.47
GUGGAGCAAUAUUACGUCAA | -1.28 ± 0.33 | -1.78 ± 0.32
GUGGAGCAAUAUUACGUCAG |  | -2.43 ± 0.46
GUGGAGCAAUAUUACGUGAU | -2.49 ± 0.12 | -1.6 ± 0.12
GUGGAGCAAUAUUACGUUAC | -2.99 ± 0.24 | -2.5 ± 0.3

Sequence | self-splicing fitness (ln) (30 °C) | self-splicing fitness (ln) (37 °C)
GUGGAGCAAUAUUACGUUGA | -3.13 ± 0.47 | -1.5 ± 0.25
GUGGAGCAAUAUUACGUUUA | -3.33 ± 0.2 | -2.26 ± 0.33
GUGUAGCAAUAUUACGAAUC | -1.43 ± 0.17 | -0.973 ± 0.14
GUGUAGCAAUAUUACGACGA | -0.571 ± 0.14 | -0.584 ± 0.16
GUGUAGCAAUAUUACGACGC | -1.8 ± 0.18 | -0.0871 ± 0.22
GUGUAGCAAUAUUACGAUAC | -2.23 ± 0.25 | -1.01 ± 0.25
GUGUAGCAAUAUUACGAUCC | -0.838 ± 0.21 | -0.041 ± 0.46
GUGUAGCAAUAUUACGCCGG | -2.93 ± 0.27 | -2.16 ± 0.38
GUGUAGCAAUAUUACGCUCU | -1.72 ± 0.23 | -0.839 ± 0.22
GUGUAGCAAUAUUACGGCUA | -1.84 ± 0.34 | -2.77 ± 0.32
GUGUAGCAAUAUUACGGUGG | -3.98 ± 0.35 | -3.36 ± 0.31
GUGUAGCAAUAUUACGUAAC | -1.66 ± 0.14 | -0.0998 ± 0.14
GUGUAGCAAUAUUACGUCAU | -3.23 ± 0.2 | -2.63 ± 0.17
GUGUAGCAAUAUUACGUCCC | -0.132 ± 0.21 | -0.385 ± 0.23
GUGUAGCAAUAUUACGUCUA | -1.13 ± 0.24 | 0.254 ± 0.23
GUGUAGCAAUAUUACGUCUG | -1.08 ± 0.17 | -1.74 ± 0.27
GUGUAGCAAUAUUACGUUCG | -1.65 ± 0.091 | -0.693 ± 0.11
GUGUAGCAAUAUUACGUUGU | -3.02 ± 0.28 | -2.17 ± 0.21
GUGUAGCAAUAUUACGUUUU | -3.32 ± 0.16 | -1.45 ± 0.12
GUUAAGCAAUAUUACGAAUG | -2.32 ± 0.24 | -1.59 ± 0.21
GUUAAGCAAUAUUACGAGAG | -3.24 ± 0.2 | -2.26 ± 0.2
GUUAAGCAAUAUUACGCACG | -0.281 ± 0.18 | -0.714 ± 0.18
GUUAAGCAAUAUUACGCAUA | -0.993 ± 0.091 | -0.274 ± 0.11
GUUAAGCAAUAUUACGCCCU | -0.813 ± 0.14 | -0.242 ± 0.11
GUUAAGCAAUAUUACGCUUG | -2.28 ± 0.14 | -0.983 ± 0.15

Sequence | self-splicing fitness (ln) (30 °C) | self-splicing fitness (ln) (37 °C)
GUUAAGCAAUAUUACGGGAU | -2.31 ± 0.14 | -0.169 ± 0.14
GUUAAGCAAUAUUACGGGCU | -4.09 ± 0.34 | -1.85 ± 0.2
GUUAAGCAAUAUUACGGGGG | -3.44 ± 0.34 | -2.67 ± 0.27
GUUAAGCAAUAUUACGGUGU | -1.58 ± 0.11 | -0.8 ± 0.12
GUUAAGCAAUAUUACGUCCC | 0.552 ± 0.49 | 
GUUAAGCAAUAUUACGUGAG | -0.109 ± 0.052 | -0.0542 ± 0.098
GUUCAGCAAUAUUACGACCA | -0.964 ± 0.14 | -0.856 ± 0.13
GUUCAGCAAUAUUACGACGA | -1.26 ± 0.21 | -0.637 ± 0.18
GUUCAGCAAUAUUACGACUG | -3.57 ± 0.28 | -0.988 ± 0.14
GUUCAGCAAUAUUACGAGGC | -2.38 ± 0.48 | -1.27 ± 0.2
GUUCAGCAAUAUUACGAUUG | -0.497 ± 0.093 | -0.904 ± 0.15
GUUCAGCAAUAUUACGCACU | -0.633 ± 0.085 | 0.537 ± 0.12
GUUCAGCAAUAUUACGCAGG | -1.35 ± 0.14 | -1.28 ± 0.17
GUUCAGCAAUAUUACGCGAG | -0.511 ± 0.11 | -0.381 ± 0.11
GUUCAGCAAUAUUACGCGAU | -2.39 ± 0.13 | -2.74 ± 0.24
GUUCAGCAAUAUUACGCUAG | -0.585 ± 0.073 | -0.102 ± 0.093
GUUCAGCAAUAUUACGGAUC | -1.33 ± 0.098 | -0.366 ± 0.1
GUUCAGCAAUAUUACGGAUG | -0.518 ± 0.081 | 0.107 ± 0.085
GUUCAGCAAUAUUACGGAUU | -0.537 ± 0.092 | 0.247 ± 0.14
GUUCAGCAAUAUUACGGCUC | 0.0792 ± 0.12 | -0.018 ± 0.12
GUUCAGCAAUAUUACGGGUC | -1.11 ± 0.11 | -1.35 ± 0.12
GUUCAGCAAUAUUACGGGUU | -1.65 ± 0.089 | -0.108 ± 0.083
